This data set is described as follows: amyloid nucleation score (Sup35N fusion, yeast selection) (log enrichment); library NNK1; higher = more nucleation; inactive = no reads after selection. A digest of the protocol:
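Peptides of 20 random codons fused to Sup35N were expressed in psi-negative yeast, induced 24 hours with 100 μM copper sulfate, then grown 7 days at 30°C on medium lacking adenine and uracil. Input and output plasmid inserts were Illumina-sequenced. Nucleation score is the DiMSum log enrichment of output over input reads, centred on the mode score of non-aggregating sequences, excluding sequences with under 100 input reads. Random libraries had three technical output replicates.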

± gives the uncertainty stated by the source.

In turn, MMAIIFMCNV gave an amyloid nucleation score of 3.05 ± 0.18.

As for FGINVSIFTESLWLNYC, the amyloid nucleation score was 4.52 ± 0.052. As for SHIRSWVRSAHAWYIWHGKT, the amyloid nucleation score worked out at 0.466 ± 0.44.

FDNVVENHSS yielded an amyloid nucleation score of -0.074 ± 0.43. As for FFNAV, the figure is -0.353 ± 0.59. As for FNYYYLVEWGDGASIRIASI, the figure is -0.473 ± 1.4; as for NLMFSNGSNRSGF, 0.142 ± 0.38. As for ENMGELCA, the entry is “inactive”; as for DKISWLSHQLRWDSRMSNLE, 1.1 ± 0.66; as for GLRQYF, -0.317 ± 0.84.

Substance RTPFFKRICK had an amyloid nucleation score of -0.303 ± 0.69. For GSPLVVSKTVVFMSGNF the value was 7.149 ± 0.052; for LSTLQQLGKLLNTVWDDLAQ, 0.048 ± 0.9.

For GLGFTGWF, the amyloid nucleation score was 0.708 ± 0.73. As for FVSTVYLY, the figure is 5.35 ± 0.064; as for CWYET, -1.27 ± 1.9. FADAASNPNAII registered an amyloid nucleation score of 0.071 ± 0.4. For CIYELRGLVRFWSHRVNRER the value was -0.445 ± 0.45; for GGFSNFMMVCNVATFSSNQL, 3.47 ± 0.19. Consider WNQADGIS, for which the amyloid nucleation score is -1.66 ± 2.4. The substance FAYRL showed an amyloid nucleation score of 0.404 ± 0.44. For TIQPRRWYVYSKQFLWNLCC the value was 1.35 ± 0.14; for LKCFLINVMLLEMLPFWDRS, 1.62 ± 0.55; for KLWFVGSLYSGNVQVYVVVP, 4.49 ± 0.061.

Regarding GLLRLDRVNISALICHQVNV, the amyloid nucleation score is 0.873 ± 0.62. AGCHGSDSHPFRQPSPLLLF: the amyloid nucleation score stood at 0.462 ± 1.2.

In turn, RSSKGFMCMEMCLGWGQSTS had an amyloid nucleation score of 3.41 ± 0.095. As for RFVQRKDSFFARI, the figure is 1.21 ± 0.66; as for GIFKVEHFFKFMYDLIVSKL, -0.312 ± 0.27; as for VIFSGVTRFHSRTCLRFVMI, -0.09 ± 0.79. As for RLSTFSFMVSICTHCLLYTN, the figure is 1.06 ± 0.59; as for HCMLGMFHWVRRQVYRSTKW, 2.34 ± 0.25.

Substance RVTYNSETTRCFCEVFAPYR returned an amyloid nucleation score of -0.875 ± 2.4. For VLANDVVPNSIYKKVSITYC the value was 0.884 ± 0.7. As for KELPSSSTCLKFS, the figure is -0.155 ± 0.44.

For SWRLMIRYVDTPNSWNFSTM, the amyloid nucleation score is -0.183 ± 0.67. As for FNRNRIGGEIVMSNNYMYHS, the figure is 1.58 ± 0.33; as for MTWMPFGPHTAGMMGHLYFG, -0.398 ± 0.64.

Substance KLLSTDNLYVQSYLFEDCNR registered an amyloid nucleation score of -0.544 ± 0.59. Consider TSFLV, for which the amyloid nucleation score is -0.028 ± 0.91. GDKSFSYCSLCCLFWARLPR displayed an amyloid nucleation score of 5.83 ± 0.064. YSLLY: the amyloid nucleation score is -0.652 ± 0.66. Consider RSYEDGALVVVGMRFGDRLR, for which the amyloid nucleation score is 0.336 ± 0.87.

With NMSCCSTPYNPWTSIVPNVM, the amyloid nucleation score came out at 0.103 ± 0.39. For RLDIDFNGLRMFLNVFLMVV, the amyloid nucleation score is -0.188 ± 0.2. For NWCTNTRSIFTIRGTDAGTL the value was -0.721 ± 1.1; for SCERW, -0.111 ± 0.45. On to GKYILYDQCSNTINSGKLSI, for which the amyloid nucleation score entry is “inactive”. Substance IASVQLS showed an amyloid nucleation score of 1.16 ± 0.53.

Take AMPADIILVVGLSCDDRREG: the amyloid nucleation score was found to be 0.724 ± 0.52. As for FSGVTMR, the figure is 1.7 ± 0.32; as for MSLMSRDVVMHIGMSWYSRG, 4.21 ± 0.12. As for WSRHELWWVPCCDRMLVLGH, the figure is 0.746 ± 0.9. As for NLGVKDLNTI, the figure is -0.905 ± 0.4; as for SVISNVCSKCTVTRRDGP, 3.17 ± 0.11. For DYGKSCRIALYGYYDRWCTG, the amyloid nucleation score is 0.797 ± 0.48. As for LFKNRVRLLLHERSLLPVII, the figure is 0.469 ± 0.68; as for VFYFYYFDEMCVSSMNRLKL, -0.36 ± 0.27. For LGQHRKPSYKHSAKHKLFVD the value was 0.519 ± 0.36. The substance LCGIVRKILQTSKRSR registered an amyloid nucleation score of 0.063 ± 0.49. With ASRSCIVSRRASGPHVCCQV, the amyloid nucleation score turned out to be 0.098 ± 0.91.

For EIQSSRRKITISMPNRSIVV, the amyloid nucleation score came out at 0.333 ± 0.25. For IGGLSGEYWFHLLSSSVLFF the value was “inactive”; for KPLLTQQK, -0.356 ± 0.54. LFGVFGFISVVSFSP returned an amyloid nucleation score of -0.455 ± 1.7.

For RRHPS, the amyloid nucleation score entry is “inactive”. For FMEVWRYWRFIVSRERFNHI the value was -0.207 ± 0.78; for TSKDEFKFEYRNEKVNQ, 1.75 ± 0.21; for QIIKENFRRSY, 2.45 ± 0.55. As for SVGTDY, the figure is -0.465 ± 1.6.

As to VGIEFLYLPFVSSRWVVTKW, the amyloid nucleation score turned out to be 0.277 ± 1.4. In turn, DLFRSSLSPVSLLHSDMDMG displayed an amyloid nucleation score of 0.12 ± 0.41. For GHVVLFLLYDLSFYSNIFCA the value was 0.712 ± 0.19; for NKKNSSLNHSL, -0.077 ± 0.43. As to GTYRRQKMELMYSSLGLFGC, the amyloid nucleation score was -0.634 ± 0.56. YVCFRVDTCRLVCVRRWLNY returned an amyloid nucleation score of 0.706 ± 0.51. Regarding LMVYK, the amyloid nucleation score was 0.575 ± 0.55.

As to VLESIQGCYFLGASWIAEFR, the amyloid nucleation score was 0.409 ± 0.48. For RGQQPFVTLKRAVFKSINTD, the amyloid nucleation score is -0.02 ± 0.41. For MYPTLRTRPTCIYVR the value was 1.19 ± 0.53; for LKYKKLPFIKRDEKFPTNRN, 0.398 ± 0.54. TSPYDSNGLFAMLAELHFYS yielded an amyloid nucleation score of 0.082 ± 0.78. Substance MCFLLSYLRWLDYYSYVVVC displayed an amyloid nucleation score of 0.962 ± 0.42. For LHQSVMRWLAASWCPQIKLG the value was 0.338 ± 0.97. As for QSFSLS, the figure is 0.609 ± 0.33; as for GITLSIAFLKAYLCRSKGGS, 2.62 ± 0.14. For VTLKVFCIVEV the value was 0.314 ± 0.44; for AYYSRNIIKPGKKVEVPKMG, -1.01 ± 0.72.

Regarding SATASNGRMAGSVSSWRKRW, the amyloid nucleation score is 0.219 ± 0.36.

In turn, FCYSTI registered an amyloid nucleation score of 0.487 ± 0.81.

For GRLSGYEWGRKSRSPGRWTV, the amyloid nucleation score stood at 0.438 ± 1.1. For GKNWVRPRPGLVTNTKEYES the value was -0.46 ± 0.76.

In turn, PSFRWIGSEMSTMFMLQVTL returned an amyloid nucleation score of 0.058 ± 0.55. As for MYYCD, the figure is -0.35 ± 0.54; as for LSRHGKVKCKLLATGGLT, 0.184 ± 0.45; as for KEIINGCRR, 5 ± 0.1. As for QSGAVTSSVRPQRVEVVRVV, the figure is -0.904 ± 0.88; as for FTAWP, -0.242 ± 0.3; as for CAFCI, -0.766 ± 1. DNSPSSWFDWDLGEIGVRVE: the amyloid nucleation score is -0.469 ± 1. For HWFESDFAI the value was “inactive”.

The substance IHKMCRAD showed an amyloid nucleation score of 0.12 ± 0.55.

On to NWFLYWT, for which the amyloid nucleation score came to 3.77 ± 0.11. As to RNYCDPGAFGVWGVTGHHRV, the amyloid nucleation score was -0.816 ± 0.92. For NGRTLINQYESLEATGICTV the value was 0.684 ± 0.78; for QRVVKVWWDTKPYVSMGSFL, 0.563 ± 0.44; for LPGDDTSCEDLSGGVPLWNG, “inactive”. For the substance LNFVNAPRSHMSGYSIGGLC, the amyloid nucleation score was -1.5 ± 1.7. MENAGTSVIPRRYIWTPKPV gave an amyloid nucleation score of 0.923 ± 0.76. For SCDYGL the value was 0.512 ± 0.63; for LGVVFGRRVHCRLASSVMNM, -0.723 ± 1.5.

The substance LIRTLANWLSIPHVLI gave an amyloid nucleation score of -0.351 ± 0.3. In turn, SIDTPYFALNRCALIHTSFT had an amyloid nucleation score of 0.825 ± 0.52.

The substance MIIPD came in with an amyloid nucleation score of 1.14 ± 0.34. With KVCAVTM, the amyloid nucleation score is 0.095 ± 0.3. As for DVFRML, the amyloid nucleation score entry is “inactive”.

As to DEDNFVRSHVNPLYLTSADD, the amyloid nucleation score amounted to 0.609 ± 0.83. As for DEGRSTQSVVCLVMEVNSDR, the figure is 0.411 ± 0.48; as for GSSRDNGQFYSFELS, 0.398 ± 0.64; as for GCIWWPTDRPLLLSPAMSYS, 0.133 ± 0.37. As for VMWSVDFWYPAMSGVIPDQF, the figure is 1.45 ± 0.65. As for TVWYYSHPS, the figure is 0.34 ± 0.48; as for FACYLNHAGGVSAHKYIFVT, 0.351 ± 0.37.

The substance HTVKAK had an amyloid nucleation score of -2.11 ± 1.1. PNFWVRFKYGYLSSLNSRTV gave an amyloid nucleation score of -0.375 ± 0.52.

Turning to GKQHSLS, the amyloid nucleation score is -1.44 ± 1.9. As for DGRFLCFHIGSLMSGWDGRQ, the figure is -0.783 ± 0.75. On to TIRVLDRTFVS, for which the amyloid nucleation score entry is “inactive”. For MCVMVGLLYGVLLSSFTNNA, the amyloid nucleation score is 0.684 ± 0.23. For LPDNSIYRYLSY the value was 0.149 ± 0.42. As for WVINFVGKTCDTIDP, the entry is “inactive”. Consider KSLENDHIVSVCSFLISRTR, for which the amyloid nucleation score came to 3.97 ± 0.081. SSGYSGSCVNINWC showed an amyloid nucleation score of 6.412 ± 0.045. For the substance IDLGFLNKCLCRNSCCVGEA, the amyloid nucleation score is 1.81 ± 0.17.

For the substance SNLVCII, the amyloid nucleation score turned out to be 0.211 ± 0.59. For SQIASVINAQSSMCRFV the value was -0.023 ± 0.38. Consider PLSVFTTPPSDHCDIKGKIE, for which the amyloid nucleation score was -0.852 ± 2.1. In the case of QLTGW, the amyloid nucleation score was -0.036 ± 0.22. Substance SAVSMVR showed an amyloid nucleation score of -0.594 ± 0.55. MTGQTCRFEGSFRFMERCRK registered an amyloid nucleation score of 0.43 ± 1. For SCKGQPARVTCETRFTGYER the value was 2.32 ± 0.49. For the substance WVYHRQKSCAIFRAEIM, the amyloid nucleation score was -0.088 ± 0.48.

On to LNVYWRPCNN, for which the amyloid nucleation score was 0.717 ± 0.9.
